# Target: GAL4-CREBΔLZ fusion protein
# Assay: cell-based or functional assay
substance,measurement,value
transcriptional coactivator CBP (CREB-binding protein),transactivation of the pG5CAT reporter after caffeine in HEK293 cells,< 45 fold
